Reference: patent US20210032351A1 (XDCEXPLORER SHANGHAI, published 2021)
One block for each binder: values may come before it.

How the values were obtained:
[1] = biological target: T1, human EGFR protein (wild-type), on cells (human, UniProt P00533 25-1210); test: FACS on A431 cells (wild-type EGFR), Alexa 488 secondary antibody, mean fluorescence intensity
T1 construct: whole, on cells; transfected on CHO-K1 cells; endogenous on the human cell lines; the cell is named under assay; also called wild-type EGFR; hEGFR
Procedure: The cells are washed twice with the HBSS buffer and are counted, and then the cells are diluted with the HBSS buffer to 2×10⁶ cells/ml, added with 1% goat serum blocking solution, with the percentage being the mass percentage, and incubated on ice for 30 minutes, and then centrifugally washed twice with the HBSS buffer. The collected cells are suspended to 2×10⁶ cells/mL with an FACS buffer (HBSS+1% BSA, with the percentage being the mass percentage), added to a 96-well FACS reaction plate at 100 μL/well, then added with 100 μL/well of the purified EGFRvIII antibody (samples to be tested) obtained in example 2, and incubated on ice for 2 hours. The plate is centrifugally washed twice with the FACS buffer, added with 100 μL/well of a fluorescence (Alexa 488) labeled secondary antibody (purchased from Invitrogen), and then incubated on ice for 1 hour. […] The cells are suspended in 100 μL of the FACS buffer, and the results are detected and analyzed by FACS (FACS Calibur, purchased from BD). Data analysis is performed by using the software (CellQuest) to obtain the mean fluorescence intensity (MFI) of the cells. Data is further analyzed by using the software (GraphPad Prism5) to perform data fitting and calculate EC50. […]

[2] = biological target: T2, human EGFRvIII-hFc protein (human, UniProt P00533 25-645); test: ELISA, coated EGFRvIII-hFc, antibody 10 nM
T2 construct: extracellular domain; made in HEK293 cells, purified on protein A; also called immunogen A; hFc-tagged EGFRvIII protein; not shown: human IgG Fc fragment (hFc) of the pCpC vector
Method in brief: (§1)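 The antibody is applied to BSA-blocked wells pre-coated with EGFRvIII-hFc (1.0 μg/mL, overnight, 4° C) for 2 h at 37° C. Detection uses an HRP secondary (2 h, 37° C), TMB for 30 min, HCl stop and absorbance at 450 nm.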

[3] = biological target: T2, human EGFRvIII-hFc protein; test: ELISA, coated EGFRvIII-hFc, antibody 0.001 nM
Method in brief: as §1

[4] = biological target: T3, human EGFRvIII protein on the cell surface (human, UniProt P00533 25-1210); test: FACS on U87MG-hEGFRvIII cells
T3 construct: whole, on cells; the cell line is named under assay; also called hEGFRvIII; U87MG-hEGFRvIII

[5] = biological target: T4, human EGFRvIII-hFc protein (human, UniProt P00533 25-645); test: ELISA, EGFRvIII-hFc coated
T4 construct: extracellular domain; also called immunogen A; hFc-tagged EGFRvIII protein; not shown: human IgG Fc fragment (hFc) of the pCpC vector

EC50 (read off the curve) [1]: ~10 nM
OD450 nm [2]: 0.19
OD450 nm [3]: 0.07
B1: Murine anti-75G7 (antibody, V domains shown)
VH: EVQLQQSGPELVKPGASVKIPCKASGYTFTDYNMDWVKQSHGKSLEWIGDINPNNGDTIYNQKFKGKATLTVDKSSSTAYMELRSLTSEDTAVYYCARGDYDGYYPVYYAMDYWGQGTSVTVSS
VL: ENVLTQSPAIMSASPGEKVTMTCRASSSVSSSYLHWYQQKSGASPKLWIFSTSNLAAGVPARFSGSGSGTSYSLTVSSVEAEDAATYYCQQYSGYPLTFGAGTKLELK
notes: murine hybridoma antibody; also called 75G7C6

EC50 [4]: 6.1 nM
EC50 [5]: 0.02 nM
Maximum OD450 value [5]: 3.03 OD450
OD450 nm at 0.0001 nM antibody [5]: 0.07 OD450
OD450 nm at 0.001 nM antibody [5]: 0.08 OD450
OD450 nm at 0.01 nM antibody [5]: 0.15 OD450
OD450 nm at 0.1 nM antibody [5]: 0.65 OD450
OD450 nm at 1 nM antibody [5]: 2.69 OD450
OD450 nm at 10 nM antibody [5]: 3.41 OD450
OD450 nm at 100 nM antibody [5]: 3.44 OD450
B2: Chimeric antibody 75G7 (antibody, human IgG1, V domains shown)
VH: B1 VH
VL: B1 VL
notes: also called c75G7C6; chimeric antibody c75G7C6
